Measured values published in patent US20190309018A1.
Where two headings read alike, the source gives them in different places. Square brackets hold non-standard residues; d marks the D form. Ends that are not written are not given here. Cya = N[C@@H](CS(=O)(=O)O)C(=O)O

Experiments:
[1] = target: integrins (on human umbilical vein endothelial cells, HUVEC) (human); test: cell-based or functional assay
[2] = target: integrins (on human umbilical vein endothelial cells, HUVEC) (human); test: cell-based or functional assay; remark: listed apart in the source

| inhibition of HUVEC wound healing (scratch assay on fibronectin coated surface; peptide 1 mM) after 24 hours [1] | inhibition of cell adhesion in a model of wound healing using HUVEC, 12 hours [1] | inhibition of HUVEC wound healing (scratch assay on fibronectin coated surface; peptide 10 mM) after 24 hours [2] | inhibition of cell adhesion in a model of wound healing using HUVEC, 12 hours [2] | Molecule |
| --- | --- | --- | --- | --- |
| 45% | 40% | – | – | Cyclic RGD (RGD-based peptide; N-methylated cyclic-RGDf-N(Me)V; Cilengitide) |
| – | – | 70% | 74% | GRG[Cya]TP-OH [Glycinyl-Arginyl-Glycinyl-Cysteic-Threonyl-Proline-COOH (GRG Cysteic Acid TP)] |
